Values of other authors as cited in patent US8901167B2, “Product and process for inhibition of biofilm development” (National Jewish Health, priority 2004, dated 2014).

B1: rhDNase: purified rhDNase (Pulmozyme; Genentech), digests extracellular DNA present in the CF airway (protein, UniProt P24855 23-282, looked up)
Deoxyribonuclease-1: LKIAAFNIQTFGETKMSNATLVSYIVQILSRYDIALVQEVRDSHLTAVGKLLDNLNQDAPDTYHYVVSEPLGRNSYKERYLFVYRPDQVSAVDSYYYDDGCEPCGNDTFNREPAIVRFFSRFTEVREFAIVPLHAAPGDAVAEIDALYDVYLDVQEKWGLEDVMLMGDFNAGCSYVRPSQWSSIRLWTSPTFQWLIPDSADTTATPTHCAYDRIVVAGMLLRGAVVPDSALPFNFQAAYGLSDQLAQAISDHYPVEVMLK
B2: lactoferrin: a major component of the secondary neutrophil granules (protein, UniProt P02788 20-710, looked up)
Lactotransferrin: GRRRSVQWCAVSQPEATKCFQWQRNMRKVRGPPVSCIKRDSPIQCIQAIAENRADAVTLDGGFIYEAGLAPYKLRPVAAEVYGTERQPRTHYYAVAVVKKGGSFQLNELQGLKSCHTGLRRTAGWNVPIGTLRPFLNWTGPPEPIEAAVARFFSASCVPGADKGQFPNLCRLCAGTGENKCAFSSQEPYFSYSGAFKCLRDGAGDVAFIRESTVFEDLSDEAERDEYELLCPDNTRKPVDKFKDCHLARVPSHAVVARSVNGKEDAIWNLLRQAQEKFGKDKSPKFQLFGSPSGQKDLLFKDSAIGFSRVPPRIDSGLYLGSGYFTAIQNLRKSEEEVAARRARVVWCAVGEQELRKCNQWSGLSEGSVTCSSASTTEDCIALVLKGEADAMSLDGGYVYTAGKCGLVPVLAENYKSQQSSDPDPNCVDRPVEGYLAVAVVRRSDTSLTWNSVKGKKSCHTAVDRTAGWNIPMGLLFNQTGSCKFDEYFSQSCAPGSDPRSNLCALCIGDEQGENKCVPNSNERYYGYTGAFRCLAENAGDVAFVKDVTVLQNTDGNNNEAWAKDLKLADFALLCLDGKRKPVTEARSCHLAMAPNHAVVSRMDKVERLKQVLLHQQAKFGRNGSDCPDKFCLFQSETKNLLFNDNTECLARLHGKTTYEKYLGPQYVAGITNLKKCSTSPLLEACEFLRK

Experiments:
[1] = tested on: extracellular DNA present in the CF airway; settings: inhalation, CF patients; Fuchs et al. 1994
P. aeruginosa biofilm = settings: literature refs 39, 43

Molecule	Clinical effect on sputum viscosity and forced expiratory volume (FEV) [1]	Effect on P. aeruginosa biofilm formation (P. aeruginosa biofilm)
B1	clinically effective for diminishing sputum viscosity and stabilizing the forced expiratory volume	–
B2	–	prevent P. aeruginosa biofilm development
